d = 2'-deoxy (DNA); m = 2'-O-methyl

In the series the test system is EPSPS 2-25 gene. The series is described as follows: EPSPS precise edits by Cas9 RNP plus GRON in leaf protoplasts (deep sequencing). As to conditions: with Cas9 protein complexed with BnEPSPS gRNA-1, three weeks, three independent experiments. The series is classed as cell-based, Brassica napus. The procedure:
Brassica napus protoplasts derived from leaves of in vitro propagated nodal cuttings were seeded in a 50 ml centrifuge tube at 2,000,000 cells per tube and at a cell density of 5×10^6 cells/ml. CRISPR-Cas9 targeting the EPSPS 2-25 gene along with GRON was delivered as a ribonucleoprotein complex using the PEG method or by alternative delivery methods such as by electroporation, cell-penetrating peptides and/or lipid based delivery techniques. Protoplasts were incubated in the dark at 25° C. for three weeks, and then analyzed deep sequencing in order to determine the percentage of precise EPSPS edits and frequency of indels within a given treatment.
The CRISPR-Cas9 consists of two components: the Streptococcus pyogenes Cas9 (SpCas9) and sgRNA which form the RNP CRISPR-Cas9 complex when mixed. The sgRNA is a fusion of CRISPR RNA (crRNA) and trans-activating crRNA (tracrRNA). The crRNA region contains the spacer sequence used to guide the Cas9 nuclease to the EPSPS target gene. In these experiments RNP CRISPR-Cas9 is used to target the EPSPS 2-25 gene. The GRON contains the coding sequence of the EPSPS gene near the site of conversion as well as nucleotide alterations to produce the desired changes to the EPSPS gene.

B1: 2′OMe; BnEPSPS-2-25/NC 101-mer: 101-mer 2OMe GRON targeting Brassica napus EPSPS 2-25, SEQ ID NO: 336 (nucleic acid)
chain: UTACCTTGCGTTGCCACCTGCAGCAGTAACTGCAGCGGTAAGTGTACGCATCGCTATTCCAGCATTCCCAAGGTACAACTCGATATCACTCTTGGAATCTA
modifications: sugars from the 5' end m1 d100, backbone and methylation of C not given here
On to B1, for which the “gene editing in the targeted epsps gene(s)” value is listed as 0.07-0.125%.

(Values after patent US11542515B2, “Methods and compositions for increasing efficiency of targeted gene modification using oligonucleotide-mediated gene repair” (CIBUS US LLC, priority 2016, dated 2023).)
